Experimental data from patent US20170152307A1.

Key:
[1] = target: recombinant tau (human), P10636; experiment: ELISA, recombinant tau coated on the plate, IgG titrated (Example 7); conditions: remark: other sources report otherwise
[2] = target: tau 48-71 (human); experiment: peptide ELISA, biotinylated peptide on streptavidin plate, IgG titrated (Example 14); conditions: remark: other sources report otherwise
Sequence of tau 48-71 (human) (peptide, as listed by the source limits assumed, form in doubt): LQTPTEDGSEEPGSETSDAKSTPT

Sequence of recombinant tau (human), P10636 (P10636 other isoform, or with tags, fused parts or gaps limits assumed): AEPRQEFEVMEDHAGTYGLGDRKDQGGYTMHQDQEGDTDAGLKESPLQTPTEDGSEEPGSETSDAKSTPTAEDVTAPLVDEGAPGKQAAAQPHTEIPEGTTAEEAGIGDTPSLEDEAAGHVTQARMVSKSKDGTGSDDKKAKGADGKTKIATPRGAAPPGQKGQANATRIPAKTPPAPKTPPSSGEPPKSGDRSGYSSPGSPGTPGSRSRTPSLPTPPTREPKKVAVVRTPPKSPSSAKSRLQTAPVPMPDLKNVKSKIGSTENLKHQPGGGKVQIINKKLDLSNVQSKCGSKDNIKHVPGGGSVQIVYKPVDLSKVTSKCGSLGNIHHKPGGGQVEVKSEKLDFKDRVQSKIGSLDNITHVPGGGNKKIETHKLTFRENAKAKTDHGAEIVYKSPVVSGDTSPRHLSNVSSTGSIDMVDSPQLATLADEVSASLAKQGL

EC50 (read off the curve) [1]: 0.008 mg/L
EC50 (read off the curve) [2]: 0.06 mg/L
B1: CBTAU-28.1 (antibody, human IgG1, V domains shown)
VH: QVQLQQSGAEVKKPGESLKISCEASGYSFTNYWIGWVRQMPGKGLEWMGIIYPGDSDTRYSPPFQGQVTITADRSITTAYLEWSSLKASDTAMYYCARVGRPSKGGWFDPWGQGTLVTVSS
VL: DIQMTQSPDSLAVSLGERATINCESSQTLLYSSNEKNYLAWYQQKPGQPPKLLISWASTPESGVPDRFSGSGSGTSFTLTISSLQAEDVAVYYCQQYYNSPYTFGQGTRLEIK
